No end group written: not given here.
T1: ADP315
T1 chain: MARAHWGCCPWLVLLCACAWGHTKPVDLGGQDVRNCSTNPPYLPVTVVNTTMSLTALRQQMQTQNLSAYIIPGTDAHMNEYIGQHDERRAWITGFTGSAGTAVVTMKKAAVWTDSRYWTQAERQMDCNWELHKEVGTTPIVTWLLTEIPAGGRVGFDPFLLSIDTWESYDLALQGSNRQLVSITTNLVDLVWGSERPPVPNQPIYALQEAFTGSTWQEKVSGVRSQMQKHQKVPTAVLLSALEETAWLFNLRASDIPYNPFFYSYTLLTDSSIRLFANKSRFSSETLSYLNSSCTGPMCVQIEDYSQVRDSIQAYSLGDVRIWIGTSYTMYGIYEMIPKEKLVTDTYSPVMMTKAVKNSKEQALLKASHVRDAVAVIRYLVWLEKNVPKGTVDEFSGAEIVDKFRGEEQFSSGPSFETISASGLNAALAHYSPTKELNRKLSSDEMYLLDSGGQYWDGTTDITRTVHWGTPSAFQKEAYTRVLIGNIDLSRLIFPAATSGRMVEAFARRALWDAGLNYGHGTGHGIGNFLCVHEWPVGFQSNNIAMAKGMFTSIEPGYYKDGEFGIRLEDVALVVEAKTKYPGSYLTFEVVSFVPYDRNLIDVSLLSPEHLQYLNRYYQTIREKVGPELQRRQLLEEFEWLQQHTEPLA

B1: 26 (protein)
chain: KCIRLNNRAIYKNKYKNNVHIGTNENIRSIEKYSNVLCNSILCKNDKISSFINQRKNVDDDDESENDDMYESTTAGSSSETDNEADEEENDASDNNNADEEQIENSNNNNADEEQNDASSNDNNDEENEEQDDVMDNDQNDKKIKHSFNLANEAKHTKEERVKEEKKLKIYDFINDKEKRLNFNGDQKDEDNEENDDKDENTLENRNIISKHTSVFPGLYFIGIGYNLLFGNPLGEADSLIDPGYRAQIYLMEWALSKEGIANDLSTLQPVNGWIRKENACSRVESITECSSISDYTKSLSAEAKVSGSYWGIASFSASTGYSSFLHEVTKRSKKTFLVKSNCVKYTIGLPPYIPWDKTTAYKNAVNELPAVFTGLDKESECPSDVYEENKAKSNCENVALWMKFFDIYGTHIIYESQLGGKITKIINVATSSIEQMKKNGVSVKAKIQAQFGFGSAGGSTDVNSANSAANDEQSYDMNEQLIVIGGNPIKDVTKEENLFEWSKTVTNHPMPINIKLTPISDSFDSDDLKESYDKAIIYYSRLYGLSPHDTMQKDDKDIIKILTNADTVTKNSAPPINAQCPHGKVVMFGFSLKQNFWDNTNALKGYNIEVCEAGSNSCTSKQGSSNKYDTSYLYMECGDQPLPFSEQVISESTSTYNTVKCPNDYSILLGFGISSSSGRINSAEYVYSTPCIPGMKSCSLNMNNDNQKSYIYVLCVDTTIWSGVNNLALVALDGAHGKVNRAKKYSDGELVGTCPLDGTVLTGFKVEFHTSSPYVQTPFEKCAKSLKACSVHGSGHAIGIQNFKSLFIYMLCKNNK
modifications: bait human Fc-tagged dimer
B2: 21 (protein)
chain: SPGNDNNNVNNDGVVHVLSKNIDVKNLQGTFYEIATNAADKIFPGLACRCTKYEFSGLKRDGNLGYVLINFACARNFIFGEKKSEMTFKLILNKPLDENTATVEEFNAAIYLVQGNQQILLNGNINIIYAELNEQNEFEHLILGGQKSIEPMIIMSKYRTVLLDTYNKLINSLYLAGYEPSLLTWPFIIQTDQTFCD
modifications: bait human Fc-tagged dimer
B3: 7 (protein)
chain: GIISGRINIAAEFHINIFVKDYFKKKKLTFVNFVSLCPKGFNIENNKCIPCPIGLYYSNSKSINQCIPCENYRKHSTTLYNSAKSKTECLCKPGYFLKDKRCVKCVAGFYKDQIGNFKCQGTCENTKMSIEVGAKNYEELKCTCKDGYFTEKKKKECIPCPFGNYCIYNPKVKYKADIIRCKNNKLTLHRGSKSPNDCLCSQGYYHDYKMDECELCNYDQYKSHISNDPCVPFISKSLVNQEYLINEPYFQYTNIYIKQTSNIIFAPKKGSKMFHEATLCETGYSYSMNKAICSICRYNNYCLGLDHSSIICPKNSITIKLKSVSALDCLCIKGYGRIIINTNQAFTISCIPCPYNTFQPHHSYGKCIPCPPHTFTKITGATSITECIPKMGYYNIAFEYIYEYSKQQMLNSIPHFIQYYHYFLKNQYEHFA
modifications: bait human Fc-tagged dimer
B4: 24 (protein)
chain: FKGNYGEANFAFFQATPASHIEEPQKTESTDAQSNIAQNEEINNAKPLQENIANNQQNSNEQQNNNEQQNNIEQQNNNIQQNNIDTSISHVPNDAIKNPIDNSNIANLDKSNDANNVIKHEENNQAKENNLETIKHTEPLTNQNTNEVKINDHNEHEKNTEENKIEEQYNNINHHSHDINKNQAINNNMNNENADKNVPHLDQSAMSNEKHINEHTTNHPIESHTGENNHDKINEPIPIEHATTPTNEPIPIEHAATPTNEPIPIEHAATPTNEPIHIEHVATPANEPTHSEHATTTTNEPIHIEHAATPTNEHIHNEHATTTTNEPTHNEHAATITHEPTHNEHTTTPTNEPIHNEHATTPTNEPIPIEHIATPANEPTHNEHATTTTNEPTHNEHTTTPTNEPIHNEHATTPTNEPIPIEHIATPANEPTHNEHATTTTNEPTHNEHATTTTNEPTHNEHATTTTNEPIHNEHATATTNEATHNEHATTTTNEPTHNEHSTTPTNEATHSENAATSTNEQHSHDQNTEVHPNDKLALVPFQGIKNPIPSNEAQPIISFPNEDDNHAQNEGSINAPSEGEHNNADNKEGPIITPLEGEQAGTAHKEDVTHKHMVGEHVPPQKTHHGPIITPVGGNHVPPQTHHAHIITPVGGEHAHGQGNNDATYVTMNTDESSSSDTKGEHSNLRSYNKNMNNNHAQRDQYDSDTLNSEGSDDAYSSMQQNFEKNGIDSFKGKGLHVSLRERIIIEIMESAKNGIDGLLKLKDSKDSGKLFMEALEKLNINMKDLKKDKNLISLEVYDKILSTMFKILTEMSFYEDSKFYETLGIKKDILNQALKDIKIKMLRKLGVSYSRLPPIIKHTEGKCAIKDIIISISSKELAQRMAIMFTKWLAPDEYGAVVDYENNVELNVLCSGAPILIQQWKYYQNMLGFEEDKDHAYLGLIDELLVMNKRYSQNKDYVETLEKIKKSKVFKHCTKIMRIGGKVSSVPFNYENVKKPSSSIIGSLGNLIKANIATYYKATAQRINSYFHYTEKKSKKSSPLKIISVCTLLHLTDMLYKCSDENSNGVMDLYNLQLNTLNMKGKMVLQYLVHLKFLTQEKKNQLKEICEPQNGLIDETLTKMLILLSTDSHELLSHELENKGFDEDYIQDEIKNINEADNNIRDKEEDDAEKMIFDDL
modifications: bait human Fc-tagged dimer
B5: 22 (protein)
chain: RGNQISKCVFYDKRNKDLKQVFYVPTNDVNMYKETIRKLLSREISLLEEPLNENSDSHNMANKKNVANFEEIKKNDENNNRKRKEMEEKLKYIEKYRNYAKGVLKNVEFKCENVDDLKSKVKCNLCVYTEIVNNKHIRQGQIIQIFMNECMYGFYYYDNINQYTQNNEYNNKALKDYNSAQKLDDIYFNIAKDISEGNVNGINFFKQQSSKYHPVCYVTE
modifications: bait human Fc-tagged dimer
B6: 13 (protein)
chain: YLSSENQKKTIATVHNNARTNTLKKNNANNNNANDIFGLSPSEVPNLIDDEEEYEILEGVKNNADLTRSTNIDHPSPSSTMIDLDNIITEISKLKKKKLKKEMNNKLEQQTNQNNNAIHHNNENEINTFTQNIKTNSNELKNQDSSNSLISTNSNTMDELLLYSTNSEDNLDISFGELQLYENSDEDTSDYEYVNEDYSVNHIFSNDAEESFNILEDVENIALSSSNRYQYSPIGPYKKKHTKVFENFKMTRNYDEFLKLYNLKDSSDNQEEYYELLAGEPFKLNSYYYRDVKYENVKKYIFKEIYDNIQNIATENKIIVSKKEELFFYFIKSLLKNNFICLSYEEEENLLSESKLLLEAMISKKIQ
modifications: bait human Fc-tagged dimer
B7: 83 (protein)
chain: NKNLKCNFYYNNNNLATYVIKHNRFLSEYQSNFLGGGYSAALKLVNSKKSGTNVNTKYNSENTNTNNNIPESSSTYTNTRLAANNAATTSTTKVTDNNKANIKLTGNNAATINTNSAENTAATKKVTENVITNQILTGNNNAATNTATTEHNNNINTNTNSAENTAATKKVTENVITNQILTGNNNAATNTATTEHNNNINTNTNSADNSNTNTNLADNTATTKKLTDNINTAQNLATSTNTATVSTDNNNINTKPIDNNNADIKSTDNYNTGTKETDNKNTDIKATDNNNIATTTDNTNTNVISTDNSKTNVISTDNSKTNTISTDNDNADTILTDNDNNADIILTDNNNADTISTDNDNADTKATDNNNNANTKATDNNNAKIISPDNNNAKTTSTDNNNNANTKATDNNNAKTISNDNNNAKTISTDNNNAKTISNDNNNANTISTDNNNNNANQYVFANNYNEATSDDELNKDSCDYSEEKENIKSMINAYLDKLDLETVRKIHSDISTCIEKKNNPRNQITHLNNLKNMYNIIKFIVVIYIAFNWAEVIYKYVGKLILAFALYMLIN
modifications: bait human Fc-tagged dimer
B8: 19 (protein)
chain: KNSDTKNNAYNDYYNTYLSKIHSFKAPFNVENLENGWNVDYSSVSTNKHVVLIPSIYNRRGVLYNKNPINSDNFIIEFNFFMERKYYKEKIDEKYYKDEKNDVHEIVYKTNSDDNLATSNKANNKEQKQIKRNGFALWILKDPFVIKEAGSNVNLVLQEEEYNIFGYKNRFNGIGILFQLKKSTNKANNKANNNNNYYYYNNYNDILNVAIILNNGDKSINSDDFTIFKNIPIDMIMINNLIHTKIICNKKEIIIAFYYPKSNNYINTLIMKNNIATENYIAFTSFNYKEDDNKNIDYNDVNNKYYENQNGYLPTFVGIKQVLTFNLNNNNNNNNNININEANINNNNYNNNNNNDNNKINYDQNYNKDISANDINAAFNDVLNNINPEKNTINQAIDVLNSITKLLQKFMNHQINSEKKLLQNINILNEKLQFVQTELKVIKKNLANQAEEPKNLQKMFSTELTGLKNLFHTHTQHHKKNIEDITNKLTKKIERNNELKILTEKAQKLEQIINK
modifications: bait human Fc-tagged dimer
B9: 30 (protein)
chain: QDNKNKVEETHEEQGEMTQEEKDEIYSEFVDYDLNKDGLIDAEEIVVTLKNMKKADFINFFNKVDLDSSGTISIDEYMLFINSN
modifications: bait human Fc-tagged dimer
B10: ADP258 (protein)
chain: MGFHIQRYIAMMGRGINPKTWKKLWVDSKNKQIIHVYNDVAEFMNNQIAQVVRVYQYRY
modifications: also: human Fc-tagged dimer
B11: 2 (protein)
chain: DFFLRYRTGFIRSRLETYIGNSDVRYNKAFINNRLLNEHAHCDAWSEWSACSKTCDYGIKIRVKISTDQTKSKACSNIAESTICHEHICPRTFEEAEETYLHNKEKEKKKKFRTT
modifications: bait human Fc-tagged dimer
B12: 74 (protein)
chain: YNLNNDLSKNNNFALNTYVRKDDVEDDSKNEIVDNIQKMVDDFSDDIGFVKTSMREVLLDTEASLEEVSDHVVQNIAKYSLTIEEKLNLFDGLLEEFIENNKGLISNLAKRQQKLKGDKIKKVCDLILKKLKKLENVNKLIKYKIILKYGNKDNKKEMIQTLKNEEGLSDDFKNNLANYETEQNNDDIKEIELVNFISTNYDKFVVNLEDLNKELLKDLNMALS
modifications: bait human Fc-tagged dimer
B13: 85 (protein)
chain: VKERNNGFPKRGEGRYLFGRNQMKSQDIEKNNKELSNKMDTQDSKQYITYLYHSSICQYCSKVTSMLENNDNVEIIKFKENNKIEDFGKFTKPIVVLLKNINKENSLERSIFYEELKRKGKKVQVPALEVNNIILFESDEIIKFYKKLLQKVSNDDKSSLQNRGNIKNDQKKNNADYDNDYDNDDNNDDNDDDDDNNYNNNNDDGYDYHTS
modifications: bait human Fc-tagged dimer

Key:
[1] = biological target: FGFR4 ectodomain (Homo sapiens, UniProt P22455); assay: AVEXIS normalised luminescence
[2] = biological target: T1, ADP315; assay: AVEXIS screen signal:noise (double-corrected)

| Binder | binding score [1] | binding score [2] |
| --- | --- | --- |
| B1 | 0.914 | – |
| B2 | 1.31 | – |
| B3 | 0.976 | – |
| B4 | 1 | – |
| B5 | 0.879 | – |
| B6 | 1.16 | – |
| B7 | 1.24 | – |
| B8 | 1.47 | – |
| B9 | 1.55 | – |
| B10 | – | 6.28 |
| B11 | 1.02 | – |
| B12 | 1.05 | – |
| B13 | 1.22 | – |

— article PMC11098746 (2024)
